Tested on: subjects with active lupus nephritis
Test: Clinical trial: urinary soluble CD6 and soluble ALCAM before and after EQ001
Type: in vivo, human
Description: 30 ml of urine is collected from a patient (or control individual) and treated with a protease inhibitor cocktail tablet on ice (MiliporeSigma, Burlington, Mass., USA) according to manufacturer's instructions. The sample is centrifuged at 10,000×g for 1 min or 5,000×g for 2 min, and the urine is removed from any pellet, aliquoted, and quick frozen in a dry ice/methanol bath and stored at −80° C. until use.
Several suitable ELISA kits are available commercially and are suitable for use in detecting soluble ALCAM and soluble CD6. For example, human ALCAM DuoSet ELISA (R&D Systems, Minneapolis, Minn.) is utilized according to the manufacturer's instructions to measure soluble ALCAM in a urine sample, and quantification is performed by generating a standard curve. Human CD6 ELISA kit (Sandwich ELISA)(LifeSpan BioSciences, Inc, Seattle, Wash.) is utilized according to the manufacturer's instructions to measure soluble CD6 in a urine sample, and quantification is performed by generating a standard curve.
In order to determine whether high urinary levels of soluble CD6 and soluble ALCAM can be used as a biomarker for sensitivity to treatment with EQ001, a clinical trial is performed in which concentrations of these markers are analyzed in the urine of subjects with active lupus nephritis before and after treatment with EQ001.
Urine samples are collected from the subjects biweekly for 2-3 months to establish individual baseline urinary soluble CD6 and soluble ALCAM concentrations. Treatment is initiated after at least five baseline measurements are obtained. Subjects receive EQ001 or vehicle administered intravenously every two weeks for a total of 5 doses, and a urine sample is collected 3 days after initial dosing, and twice weekly thereafter over the course of the study, which continues for 20 weeks post-initial treatment.
As described above, immediately after collection, samples are treated, aliquoted, and frozen in accordance with the above method, and upon the completion of the study, samples are tested by ELISA.

[1] = Cohort 4, active lupus nephritis, iv every two weeks, 5 doses, ELISA

B1: EQ001: itolizumab, humanized anti-CD6 antibody, produced in CHO cells; VH/VK SEQ ID NOS: 1 and 2 (antibody, V domains shown)
VH: EVQLVESGGGLVKPGGSLKLSCAASGFKFSRYAMSWVRQAPGKRLEWVATISSGGSYIYYPDSVKGRFTISRDNVKNTLYLQMSSLRSEDTAMYYCARRDYDLDYFDSWGQGTLVTVSS
VL: DIQMTQSPSSLSASVGDRVTITCKASRDIRSYLTWYQQKPGKAPKTLIYYATSLADGVPSRFSGSGSGQDYSLTISSLESDDTATYYCLQHGESPFTLGSGTKLEIK
modifications: Made in Lab - synthesized VH amino acid sequence; Made in Lab - synthesized VK amino acid sequence
urinary soluble ALCAM levels [1]: significant decreases | urinary soluble CD6 levels [1]: significant decreases | response to treatment by basal soluble CD6 and soluble ALCAM (subjects with the highest basal levels): respond most dramatically
